Values of other authors in publication PMC10580911.
pKd: −log10 of the molar value.

Target: Tk-subtilisin (Thermococcus kodakarensis) (UniProt P58502)

Substance: Tk-subtilisin propeptide propeptide (from UniProt P58502)
- pKd: 8.85
